According to patent EP4768503A1 (Keymed Biosciences (Chengdu) Co., Ltd., dated 2026):
Where no end group is shown, it is not given here. [ ]: non-standard residue; d: D form. pGlu = O=C1CC[C@@H](C(=O)O)N1

B1: 6B5 H1K2 hIgG1 (antibody, V domains shown)
VH: QVQLVQSGAEVKKPGASVKVSCKASGYTFTTYWMHWVRQAPGQGLEWIGEIDPSDSYTNYNQKFKGRATLTVDKSSSTAYMELSSLRSEDTAVYYCARSFHGNFFVYWGQGTLVTVSS
VL: EIVLTQSPATLSLSPGERATLSCRASSSVSYMHWFQQKPGQAPRLLIYSTSNLATGIPARFSGSGSGTDYTLTISRLEPEDFAVYYCQQRSSYPLTFGQGTKLEIK
notes: also called h6B5 H1 + h6B5 K2
B2: 6B5 H1K5 hIgG1 (antibody, V domains shown)
VH: QVQLVQSGAEVKKPGASVKVSCKASGYTFTTYWMHWVRQAPGQGLEWIGEIDPSDSYTNYNQKFKGRATLTVDKSSSTAYMELSSLRSEDTAVYYCARSFHGNFFVYWGQGTLVTVSS
VL: DIQMTQSPSSLSASVGDRVTITCRASSSVSYMHWFQQKPGKAPKLLIYSTSNLASGVPSRFSGSGSGTDYTLTISSLQPEDFATYYCQQRSSYPLTFGQGTKLEIK
notes: also called h6B5 H1 + h6B5 K5
B3: 6B5 H1K4 hIgG1 (antibody, V domains shown)
VH: QVQLVQSGAEVKKPGASVKVSCKASGYTFTTYWMHWVRQAPGQGLEWIGEIDPSDSYTNYNQKFKGRATLTVDKSSSTAYMELSSLRSEDTAVYYCARSFHGNFFVYWGQGTLVTVSS
VL: DIQLTQSPSSLSASVGDRVTITCRASSSVSYMHWFQQKPGKAPKLWIYSTSNLASGVPSRFSGSGSGTDYTLTISSLQPEDFATYYCQQRSSYPLTFGQGTKLEIK
notes: also called h6B5 H1 + h6B5 K4
B4: 6B5 H1K6 hIgG1 (antibody, V domains shown)
VH: QVQLVQSGAEVKKPGASVKVSCKASGYTFTTYWMHWVRQAPGQGLEWIGEIDPSDSYTNYNQKFKGRATLTVDKSSSTAYMELSSLRSEDTAVYYCARSFHGNFFVYWGQGTLVTVSS
VL: DIQMTQSPSSLSASVGDRVTITCRASSSVSYMHWFQQKPGKAPKLLIYSTSSLQSGVPSRFSGSGSGTDYTLTISSLQPEDFATYYCQQRSSYPLTFGQGTKLEIK
notes: also called h6B5 H1 + h6B5 K6
B5: 6B5 H1K1 hIgG1 (antibody, V domains shown)
VH: QVQLVQSGAEVKKPGASVKVSCKASGYTFTTYWMHWVRQAPGQGLEWIGEIDPSDSYTNYNQKFKGRATLTVDKSSSTAYMELSSLRSEDTAVYYCARSFHGNFFVYWGQGTLVTVSS
VL: EIVLTQSPATLSLSPGERATLSCRASSSVSYMHWFQQKPGQAPRLWIYSTSNLASGIPARFSGSGSGTDYTLTISRLEPEDFAVYYCQQRSSYPLTFGQGTKLEIK
notes: also called h6B5 H1 + h6B5 K1
B6: 6B5 H1K3 hIgG1 (antibody, V domains shown)
VH: QVQLVQSGAEVKKPGASVKVSCKASGYTFTTYWMHWVRQAPGQGLEWIGEIDPSDSYTNYNQKFKGRATLTVDKSSSTAYMELSSLRSEDTAVYYCARSFHGNFFVYWGQGTLVTVSS
VL: EIVLTQSPATLSLSPGERATLSCRASSSVSYMHWFQQKPGQAPRLLIYSTSSRATGIPARFSGSGSGTDYTLTISRLEPEDFAVYYCQQRSSYPLTFGQGTKLEIK
notes: also called h6B5 H1 + h6B5 K3
B7: 151N5 H1K1 (antibody, V domains shown)
VH: EVQLVESGGGLVKPGGSLRLSCAASGFTFSDFYMYWVRQAPGKGLEWVATISDGGRYTYYPDRLKGRFTISRDIAKNSLYLQMNSLRAEDTAVYYCARGRSTMITTTRNYFALDYWGQGTLVTVSS
VL: DIQMTQSPSSLSASVGDRVTITCKASEDIYNRLAWYQQKPGKAPKLLISGATSLETGVPSRFSGSGSGKDYTLTISSLQPEDIATYYCQQYWRTPLTFGQGTKLEIK
notes: also called h151N5 H1 + h151N5 K1
B8: 151N5 H1K2 (antibody, V domains shown)
VH: EVQLVESGGGLVKPGGSLRLSCAASGFTFSDFYMYWVRQAPGKGLEWVATISDGGRYTYYPDRLKGRFTISRDIAKNSLYLQMNSLRAEDTAVYYCARGRSTMITTTRNYFALDYWGQGTLVTVSS
VL: DIQMTQSPSSLSASVGDRVTITCKASEDIYNRLAWYQQKPGKAPKLLISGATSLETGVPSRFSGSGSGKDYTLTISSLQPEDVATYYCQQYWRTPLTFGQGTKLEIK
notes: also called h151N5 H1 + h151N5 K2
B9: 7C8 H2K2 hIgG1 (antibody, V domains shown)
VH: QVTLKESGPALVKPTQTLTLTCTFSGFSLSTSGMGVSWIRQPPGKALEWLAHIYWDDDKRYNPSLKSRLTITKDTSKNQVVLTMTNMDPVDTATYYCARYGKGFAYWGQGTLVTVSS
VL: DIVMTQSPLSLPVTPGEPASISCRSSQSIVHSNGNTYLDWYLQKPGQSPQLLIYKVSNRFSGVPDRFSGSGSGTDFTLKISRVEAEDVGVYYCFQGSHVPLTFGQGTKLEIK
notes: also called h7C8 H2 + h7C8 K2
B10: 7C8 H6K2 hIgG1 (antibody, V domains shown)
VH: QVQLQESGPGLVKPSETLSLTCTFSGFSISTSGMGVSWIRQPPGKGLEWIGHIYWDDDKRYNPSLKSRVTISKDTSKNQVSLKLSSVTAADTAVYYCARYGKGFAYWGQGTLVTVSS
VL: DIVMTQSPLSLPVTPGEPASISCRSSQSIVHSNGNTYLDWYLQKPGQSPQLLIYKVSNRFSGVPDRFSGSGSGTDFTLKISRVEAEDVGVYYCFQGSHVPLTFGQGTKLEIK
notes: also called h7C8 H6K2 hIgG1; h7C8 H6K2
B11: 7C8 H2K1 hIgG1 (antibody, V domains shown)
VH: QVTLKESGPALVKPTQTLTLTCTFSGFSLSTSGMGVSWIRQPPGKALEWLAHIYWDDDKRYNPSLKSRLTITKDTSKNQVVLTMTNMDPVDTATYYCARYGKGFAYWGQGTLVTVSS
VL: DVVMTQSPLSLPVTPGEPASISCRSSQSIVHSNGNTYLEWYLQKPGQSPKLLIYKVSNRFSGVPDRFSGSGSGTDFTLKISRVEAEDVGVYYCFQGSHVPLTFGQGTKLEIK
notes: also called h7C8 H2 + h7C8 K1
B12: 7C8 H5K2 hIgG1 (antibody, V domains shown)
VH: QVQLQESGPGLVKPSETLSLTCTFSGFSLSTSGMGVSWIRQPPGKGLEWIAHIYWDDDKRYNPSLKSRVTISKDTSKNQVSLKLSSVTAADTAVYYCARYGKGFAYWGQGTLVTVSS
VL: DIVMTQSPLSLPVTPGEPASISCRSSQSIVHSNGNTYLDWYLQKPGQSPQLLIYKVSNRFSGVPDRFSGSGSGTDFTLKISRVEAEDVGVYYCFQGSHVPLTFGQGTKLEIK
notes: also called h7C8 H5 + h7C8 K2
B13: 7C8 H6K1 hIgG1 (antibody, V domains shown)
VH: QVQLQESGPGLVKPSETLSLTCTFSGFSISTSGMGVSWIRQPPGKGLEWIGHIYWDDDKRYNPSLKSRVTISKDTSKNQVSLKLSSVTAADTAVYYCARYGKGFAYWGQGTLVTVSS
VL: DVVMTQSPLSLPVTPGEPASISCRSSQSIVHSNGNTYLEWYLQKPGQSPKLLIYKVSNRFSGVPDRFSGSGSGTDFTLKISRVEAEDVGVYYCFQGSHVPLTFGQGTKLEIK
notes: also called h7C8 H6 + h7C8 K1
B14: 7C8 H7K1 hIgG1 (antibody, V domains shown)
VH: QVQLQESGPGLVKPSETLSLTCTVSGFSISTSGMGVSWIRQPPGKGLEWIGHIYWDDDKRYNPSLKSRVTISKDTSKNQVSLKLSSVTAADTAVYYCARYGKGFAYWGQGTLVTVSS
VL: DVVMTQSPLSLPVTPGEPASISCRSSQSIVHSNGNTYLEWYLQKPGQSPKLLIYKVSNRFSGVPDRFSGSGSGTDFTLKISRVEAEDVGVYYCFQGSHVPLTFGQGTKLEIK
notes: also called h7C8 H7 + h7C8 K1
B15: 7C8 H7K2 hIgG1 (antibody, V domains shown)
VH: QVQLQESGPGLVKPSETLSLTCTVSGFSISTSGMGVSWIRQPPGKGLEWIGHIYWDDDKRYNPSLKSRVTISKDTSKNQVSLKLSSVTAADTAVYYCARYGKGFAYWGQGTLVTVSS
VL: DIVMTQSPLSLPVTPGEPASISCRSSQSIVHSNGNTYLDWYLQKPGQSPQLLIYKVSNRFSGVPDRFSGSGSGTDFTLKISRVEAEDVGVYYCFQGSHVPLTFGQGTKLEIK
notes: also called h7C8 H7 + h7C8 K2
B16: 7C8 H4K2 hIgG1 (antibody, V domains shown)
VH: QVQLQESGPGLVKPSETLSLTCTFSGFSLSTSGMGVSWIRQPPGKGLEWLAHIYWDDDKRYNPSLKSRVTISKDTSRNQVSLKLSSVTAADTAVYYCARYGKGFAYWGQGTLVTVSS
VL: DIVMTQSPLSLPVTPGEPASISCRSSQSIVHSNGNTYLDWYLQKPGQSPQLLIYKVSNRFSGVPDRFSGSGSGTDFTLKISRVEAEDVGVYYCFQGSHVPLTFGQGTKLEIK
notes: also called h7C8 H4 + h7C8 K2
B17: 200O1 H1K1 (antibody, V domains shown)
VH: QVTLKESGPVLVKPTETLTLTCTVSGFSLSRYIVHWYRQPPGKALEWLAMIWGGGRIDYNSALKSRLTISKDNSKSQVVLTMTNMDPVDTATYYCARNFGENAEAYWGQGTLVTVSS
VL: DIQMTQSPSSLSASVGDRVTITCRASQDINIYLNWYQQKPGKVVKLLIYYTSRLHSGVPSRFSGSGSGTDFTLTISSLQPEDVATYFCQQGHTLPYTFGQGTKLEIK
notes: also called h200O1 H1K1 hIgG1; h200O1 H1K1
B18: 200O1 H5K1 (antibody, V domains shown)
VH: QVQLQESGPGLVKPSETLSLTCTVSGFSLSRYIVHWYRQPPGKGLEWIGMIWGGGRIDYNSALKSRVTISKDNSKSQVSLKLSSVTAADTAVYYCARNFGENAEAYWGQGTLVTVSS
VL: DIQMTQSPSSLSASVGDRVTITCRASQDINIYLNWYQQKPGKVVKLLIYYTSRLHSGVPSRFSGSGSGTDFTLTISSLQPEDVATYFCQQGHTLPYTFGQGTKLEIK
notes: also called h200O1 H5 + h200O1 K1
B19: 200O1 H2K1 (antibody, V domains shown)
VH: QVTLKESGPVLVKPTETLTLTCTVSGFSLSRYIVHWYRQPPGKALEWLAMIWGGGRIDYNSALKSRLTISKDTSKSQVVLTMTNMDPVDTATYYCARNFGENAEAYWGQGTLVTVSS
VL: DIQMTQSPSSLSASVGDRVTITCRASQDINIYLNWYQQKPGKVVKLLIYYTSRLHSGVPSRFSGSGSGTDFTLTISSLQPEDVATYFCQQGHTLPYTFGQGTKLEIK
notes: also called h200O1 H2 + h200O1 K1
B20: 200O1 H6K1 (antibody, V domains shown)
VH: QVQLQESGPGLVKPSETLSLTCTVSGFSLSRYIVHWYRQPPGKGLEWIGMIWGGGRIDYNSALKSRVTISKDTSKNQVSLKLSSVTAADTAVYYCARNFGENAEAYWGQGTLVTVSS
VL: DIQMTQSPSSLSASVGDRVTITCRASQDINIYLNWYQQKPGKVVKLLIYYTSRLHSGVPSRFSGSGSGTDFTLTISSLQPEDVATYFCQQGHTLPYTFGQGTKLEIK
notes: also called h200O1 H6 + h200O1 K1

Tests used:
Aβ1-42 protofibril = target: T1, Aβ1-42 protofibril (human); test: SPR (Biacore T200), protofibril on CM5 chip, antibody as analyte
T1 construct: also called amyloid protofibril

[1] = target: T2, pyroE Aβ3-16-biotin polypeptide (human, also: biotin, position not given here); test: SPR (Biacore T200), biotinylated peptide on SA chip, antibody as analyte; antigen channel not given
T2 peptide: [pGlu]FRHDSGYEVHHQK

T1 sequence (peptide, as listed by the source): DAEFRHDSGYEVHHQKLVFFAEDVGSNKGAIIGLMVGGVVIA

Binder | Kd (Aβ1-42 protofibril) [nM] | koff (Aβ1-42 protofibril) [s⁻¹] | kon (Aβ1-42 protofibril) [M⁻¹ s⁻¹] | Kd [1] [pM] | koff [1] [s⁻¹] | kon [1] [M⁻¹ s⁻¹]
B1 | 2.11 | 0.00361 | 1.71e+06 |  |  | 
B2 | 1.87 | 0.00354 | 1.9e+06 |  |  | 
B3 | 1.6 | 0.00229 | 1.43e+06 |  |  | 
B4 | 1.64 | 0.00401 | 2.44e+06 |  |  | 
B5 | 1.7 | 0.00255 | 1.49e+06 |  |  | 
B6 | 1.42 | 0.00404 | 2.85e+06 |  |  | 
B7 |  |  |  | 321 | 0.0002 | 622000
B8 |  |  |  | 319 | 0.000207 | 648000
B9 | 2.76 | 0.00293 | 1.06e+06 |  |  | 
B10 | 2.8 | 0.0041 | 1.46e+06 |  |  | 
B11 | 2.74 | 0.0028 | 1.02e+06 |  |  | 
B12 | 2.95 | 0.00395 | 1.34e+06 |  |  | 
B13 | 2.63 | 0.00472 | 1.79e+06 |  |  | 
B14 | 1.93 | 0.00466 | 2.42e+06 |  |  | 
B15 | 2.33 | 0.00415 | 1.78e+06 |  |  | 
B16 | 3.08 | 0.0037 | 1.2e+06 |  |  | 
B17 |  |  |  | 0.0011 |  | 682000
B18 |  |  |  | 0.0736 | 5.7e-08 | 776000
B19 |  |  |  | 0.625 | 2.38e-07 | 381000
B20 |  |  |  | 0.61 | 4.55e-07 | 747000
